Test results: doi:10.1101/2024.11.22.624932

What was measured:
[1] = target: synthetic nanobody (sybody) Sb44; experiment: SEC
Sb44 V100C [2] = experiment: SEC
Sb44 V100C [3] = experiment: SDS-PAGE under non-reducing and reducing conditions

B1: synthetic nanobody (sybody) Sb44 (VHH)
VHH: QVQLVESGGGLVQAGGSLRLSCAASGFPVGRASMWWYRQAPGKEREWVAAISSYGWVTAYADSVKGRFTISRDNAKNTVYLQMNSLKPEDTAVYYCEVSVGTGYRGQGTQVTVSA
**Q.** With B1 as the binder, how does the stoichiometry N [1] read?
**A.** The stoichiometry N was 2.

B2: Sb44 V100C (VHH)
VHH: QVQLVESGGGLVQAGGSLRLSCAASGFPVGRASMWWYRQAPGKEREWVAAISSYGWVTAYADSVKGRFTISRDNAKNTVYLQMNSLKPEDTAVYYCEVSCGTGYRGQGTQVTVSA
**Q.** Which stoichiometry N (Sb44 V100C [2]) does the source give for B2 here?
**A.** The stoichiometry N was 2.

**Q.** What about the stoichiometry N (Sb44 V100C [3]) of the same binder?
**A.** Its stoichiometry N is 2.
